Data: paper PMC5059719, “Tetrameric structure of the restriction DNA glycosylase R.PabI in complex with nonspecific double-stranded DNA” (Scientific Reports, 2016)
Substitutions are numbered along the chain they refer to. In names and notes the source's numbering stands. One block for each binder: values may come before it.

Columns and labels:
[1] = target: R.PabI Y68F R70D mutant, residues 8-226 (Pyrococcus abyssi) (UniProt Q9V2B6)
[2] = target: the molecule itself; experiment: crystal structure; R.PabI R32A E63A dimer co-crystallised with 20 bp blunt-ended nonspecific dsDNA (dsDNA:dimer 1:2) in 10 mM MES pH 6.0, 100 mM NaCl; sitting drop, 20 °C; one dimer in the asymmetric unit, tetramer = two dimers related by the crystallographic two-fold axis, sandwiching the dsDNA
[3] = target: the molecule itself; experiment: cell-based or functional assay
[4] = target: R.PabI Y68F R70D D71R mutant, residues 8-226 (Pyrococcus abyssi) (UniProt Q9V2B6)

DNA glycosylase activity relative to the Y68F control, 24 bp dsDNA substrate [1]: 127%
DNA glycosylase activity relative to the Y68F control, 500 bp dsDNA substrate [1]: 76%
DNA glycosylase activity relative to the Y68F control, 3000 bp dsDNA substrate [1]: 19%
B1: R.PabI Y68F R70D mutant, residues 8-226 (enzyme)
chain: EASVSFENGKIVVRLPITRPTSKIRVKKIENGVGIPVSTRKKSFPSDENLRDYYIEWQISFADDGKYDYELSRMVRLAHEHGILTYNDIYELLKFADDVKSYLEDKGIRRESTNEELYGFNIYEDVYPVAKKELPSGEFIGIVLKHKQRAVGYQSMVYVCIPLTNVEPSLAGRVARRNEVVKYEVPVDLMKELLKAFIIASETHKNDIVKFLRSIIGTS

B2: R.PabI R32A E63A double mutant, residues 8-226 (enzyme, Pyrococcus abyssi, UniProt Q9V2B6 8-226, looked up)
chain: B1 chain with R25A, E56A, F61Y, D63R
notes: R.PabI, type II restriction enzyme (restriction DNA glycosylase) of Pyrococcus abyssi, residues 8-226, with R32A and E63A; Cloned into the NdeI-BamHI site of pET26b; also called protomers A and B; source: E. coli Rosetta(DE3)pLysS, purified (heat treatment, heparin column, MonoS)
stoichiometry N [2]: 2

B3: R.PabI Y68F D71R mutant, residues 8-226 (enzyme, Pyrococcus abyssi, UniProt Q9V2B6 8-226, looked up)
chain: B1 chain with D63R, D64R
DNA glycosylase activity relative to the Y68F control, 24 bp dsDNA substrate [3]: 74%
DNA glycosylase activity relative to the Y68F control, 500 bp dsDNA substrate [3]: 34%
DNA glycosylase activity relative to the Y68F control, 3000 bp dsDNA substrate [3]: 19%

DNA glycosylase activity relative to the Y68F control, 24 bp dsDNA substrate [4]: 105%
DNA glycosylase activity relative to the Y68F control, 500 bp dsDNA substrate [4]: 71%
DNA glycosylase activity relative to the Y68F control, 3000 bp dsDNA substrate [4]: 40%
B4: R.PabI Y68F R70D D71R mutant, residues 8-226 (enzyme)
chain: B1 chain with D64R
